# Assay results: the Immune Epitope Database (IEDB)
# pIC50, pKd: −log10 of the molar value.
# How the values were obtained:
# HLA-A*01:01 [1] = experiment: IEDB peptide-MHC binding, purified MHC/competitive/fluorescence; ≥ and ≤ were set here for values at or beyond the usual limits of such assays; conditions: source organism: Homo sapiens
# HLA-A*02:01 [2] = experiment: as above; conditions: source organism: Homo sapiens
# HLA-A*03:01 [3] = experiment: as above; conditions: source organism: Homo sapiens
# HLA-A*11:01 [4] = experiment: as above; conditions: source organism: Homo sapiens
# HLA-A*24:02 = experiment: as above; conditions: source organism: Homo sapiens
# HLA-A*25:01 = experiment: as above; conditions: source organism: Homo sapiens
# HLA-A*29:02 = experiment: as above; conditions: source organism: Homo sapiens
# HLA-A*31:01 [5] = experiment: as above; conditions: source organism: Homo sapiens
# HLA-A*68:02 = experiment: as above; conditions: source organism: Homo sapiens
# HLA-B*07:02 [6] = experiment: as above; conditions: source organism: Homo sapiens
# HLA-B*08:01 = experiment: as above; conditions: source organism: Homo sapiens
# HLA-B*14:02 = experiment: as above; conditions: source organism: Homo sapiens
# HLA-B*18:01 [7] = experiment: as above; conditions: source organism: Homo sapiens
# HLA-B*35:01 = experiment: as above; conditions: source organism: Homo sapiens
# HLA-B*37:01 = experiment: as above; conditions: source organism: Homo sapiens
# HLA-B*40:02 = experiment: as above; conditions: source organism: Homo sapiens
# HLA-B*44:03 = experiment: as above; conditions: source organism: Homo sapiens
# HLA-B*51:01 [8] = experiment: as above; conditions: source organism: Homo sapiens
# HLA-B*53:01 = experiment: as above; conditions: source organism: Homo sapiens
# HLA-B*58:01 [9] = experiment: as above; conditions: source organism: Homo sapiens
# HLA-A*01:01 [10] = experiment: IEDB peptide-MHC binding, purified MHC/direct/fluorescence; filed as Kd, often an IC50 or EC50 that approximates it; ≥ and ≤ were set here for values at or beyond the usual limits of such assays
# HLA-A*02:01 [11] = experiment: as above
# HLA-A*11:01 [12] = experiment: as above
# HLA-A*26:01 = experiment: as above; conditions: source organism: Francisella tularensis subsp. tularensis FSC033
# HLA-A*26:03 = experiment: as above; conditions: source organism: Francisella tularensis subsp. tularensis FSC033
# HLA-A*31:01 [13] = experiment: as above
# HLA-A*69:01 = experiment: as above
# HLA-B*07:02 [14] = experiment: as above
# HLA-B*08:02 = experiment: as above; conditions: source organism: Francisella tularensis subsp. tularensis FSC033
# HLA-B*08:03 = experiment: as above; conditions: source organism: Francisella tularensis subsp. tularensis FSC033
# HLA-B*27:05 = experiment: as above
# HLA-B*40:01 = experiment: as above
# HLA-B*44:02 = experiment: as above; conditions: source organism: Francisella tularensis subsp. holarctica LVS
# HLA-B*57:01 = experiment: as above
# HLA-B*58:01 [15] = experiment: as above
# HLA-B*15:09 = experiment: IEDB peptide-MHC binding, purified MHC/competitive/fluorescence; filed as Kd, often an IC50 or EC50 that approximates it; ≥ and ≤ were set here for values at or beyond the usual limits of such assays
# HLA-B*15:17 [16] = experiment: as above; conditions: source organism: Francisella tularensis subsp. tularensis FSC198
# HLA-B*39:01 = experiment: as above; conditions: source organism: Francisella tularensis subsp. tularensis FSC198
# HLA-B*48:01 [17] = experiment: as above
# HLA-A*03:01 [18] = experiment: IEDB peptide-MHC binding, purified MHC/direct/fluorescence; filed as Kd, often an IC50 or EC50 that approximates it; ≥ and ≤ were set here for values at or beyond the usual limits of such assays; conditions: source organism: Giardia lamblia ATCC 50803
# HLA-A*30:01 = experiment: as above; conditions: source organism: Giardia lamblia ATCC 50803
# HLA-B*15:01 = experiment: as above; conditions: source organism: Giardia lamblia ATCC 50803
# HLA-B*15:17 [19] = experiment: as above; conditions: source organism: Giardia lamblia ATCC 50803
# HLA-B*18:01 [20] = experiment: as above; conditions: source organism: Giardia lamblia ATCC 50803
# HLA-B*46:01 = experiment: as above; conditions: source organism: Giardia lamblia ATCC 50803
# HLA-B*48:01 [21] = experiment: as above; conditions: source organism: Giardia lamblia ATCC 50803
# HLA-B*51:01 [22] = experiment: as above; conditions: source organism: Giardia lamblia ATCC 50803
# HLA-C*03:03 = experiment: as above; conditions: source organism: Giardia lamblia ATCC 50803
# [23] = source organism: Francisella tularensis subsp. holarctica LVS
# [24] = source organism: Francisella tularensis subsp. tularensis FSC198
# [25] = source organism: Giardia lamblia ATCC 50803
sequence,measurement,setting,value
ELFARSSDPR,pIC50,HLA-A*01:01 [1],≤ 4.70
same,pIC50,HLA-A*02:01 [2],≤ 4.70
same,pIC50,HLA-A*03:01 [3],≤ 4.70
same,pIC50,HLA-A*11:01 [4],≤ 4.70
same,pIC50,HLA-A*24:02,≤ 4.70
same,pIC50,HLA-A*25:01,≤ 4.70
same,pIC50,HLA-A*29:02,≤ 4.70
same,pIC50,HLA-A*31:01 [5],4.81
same,pIC50,HLA-A*68:02,5.25
same,pIC50,HLA-B*07:02 [6],≤ 4.70
same,pIC50,HLA-B*08:01,≤ 4.70
same,pIC50,HLA-B*14:02,≤ 4.70
same,pIC50,HLA-B*18:01 [7],≤ 4.70
same,pIC50,HLA-B*35:01,≤ 4.70
same,pIC50,HLA-B*37:01,≤ 4.70
same,pIC50,HLA-B*40:02,≤ 4.70
same,pIC50,HLA-B*44:03,≤ 4.70
same,pIC50,HLA-B*51:01 [8],≤ 4.70
same,pIC50,HLA-B*53:01,≤ 4.70
same,pIC50,HLA-B*58:01 [9],≤ 4.70
LVTMGTGTFGR,pIC50,HLA-A*01:01 [1],≤ 4.70
same,pIC50,HLA-A*02:01 [2],≤ 4.70
same,pIC50,HLA-A*03:01 [3],≤ 4.70
same,pIC50,HLA-A*11:01 [4],6.41
same,pIC50,HLA-A*24:02,≤ 4.70
same,pIC50,HLA-A*25:01,≤ 4.70
same,pIC50,HLA-A*29:02,≤ 4.70
same,pIC50,HLA-A*31:01 [5],≤ 4.70
same,pIC50,HLA-A*68:02,≤ 4.70
same,pIC50,HLA-B*07:02 [6],4.86
same,pIC50,HLA-B*08:01,≤ 4.70
same,pIC50,HLA-B*14:02,≤ 4.70
same,pIC50,HLA-B*18:01 [7],≤ 4.70
same,pIC50,HLA-B*35:01,6.01
same,pIC50,HLA-B*37:01,≤ 4.70
same,pIC50,HLA-B*40:02,≤ 4.70
same,pIC50,HLA-B*44:03,≤ 4.70
same,pIC50,HLA-B*51:01 [8],≤ 4.70
same,pIC50,HLA-B*53:01,≤ 4.70
same,pIC50,HLA-B*58:01 [9],≤ 4.70
REIGDISYL,pKd,HLA-A*01:01 [10]; [23],≤ 4.70
same,pKd,HLA-A*02:01 [11]; [23],≤ 4.70
same,pKd,HLA-A*11:01 [12]; [23],≤ 4.70
same,pKd,HLA-A*26:01,≤ 4.70
same,pKd,HLA-A*26:03,≤ 4.70
same,pKd,HLA-A*31:01 [13]; [23],≤ 4.70
same,pKd,HLA-A*69:01; [23],≤ 4.70
same,pKd,HLA-B*07:02 [14]; [23],≤ 4.70
same,pKd,HLA-B*08:02,≤ 4.70
same,pKd,HLA-B*08:03,≤ 4.70
same,pKd,HLA-B*27:05; [23],≤ 4.70
same,pKd,HLA-B*40:01; [23],≥ 9.00
same,pKd,HLA-B*44:02,≤ 4.70
same,pKd,HLA-B*57:01; [23],≤ 4.70
same,pKd,HLA-B*58:01 [15]; [23],≤ 4.70
same,pKd,HLA-B*15:09; [24],5.70
same,pKd,HLA-B*15:17 [16],≤ 4.70
same,pKd,HLA-B*39:01,6.51
same,pKd,HLA-B*48:01 [17]; [24],≤ 4.70
RQSSGSSSSGF,pIC50,HLA-A*01:01 [1],≤ 4.70
same,pIC50,HLA-A*02:01 [2],≤ 4.70
same,pIC50,HLA-A*03:01 [3],≤ 4.70
same,pIC50,HLA-A*11:01 [4],≤ 4.70
same,pIC50,HLA-A*24:02,≤ 4.70
same,pIC50,HLA-A*25:01,≤ 4.70
same,pIC50,HLA-A*29:02,≤ 4.70
same,pIC50,HLA-A*31:01 [5],≤ 4.70
same,pIC50,HLA-A*68:02,≤ 4.70
same,pIC50,HLA-B*07:02 [6],≤ 4.70
same,pIC50,HLA-B*08:01,≤ 4.70
same,pIC50,HLA-B*14:02,≤ 4.70
same,pIC50,HLA-B*18:01 [7],≤ 4.70
same,pIC50,HLA-B*35:01,≤ 4.70
same,pIC50,HLA-B*37:01,6.50
same,pIC50,HLA-B*40:02,5.69
same,pIC50,HLA-B*44:03,≤ 4.70
same,pIC50,HLA-B*51:01 [8],≤ 4.70
same,pIC50,HLA-B*53:01,≤ 4.70
same,pIC50,HLA-B*58:01 [9],≤ 4.70
VAAKGAPAL,pKd,HLA-A*01:01 [10]; [25],≤ 4.70
same,pKd,HLA-A*02:01 [11]; [25],≤ 4.70
same,pKd,HLA-A*03:01 [18],≤ 4.70
same,pKd,HLA-A*11:01 [12]; [25],≤ 4.70
same,pKd,HLA-A*30:01,≤ 4.70
same,pKd,HLA-A*31:01 [13]; [25],≤ 4.70
same,pKd,HLA-A*69:01; [25],7.17
same,pKd,HLA-B*07:02 [14]; [25],6.55
same,pKd,HLA-B*15:01,≤ 4.70
same,pKd,HLA-B*15:17 [19],8.15
same,pKd,HLA-B*18:01 [20],≤ 4.70
same,pKd,HLA-B*27:05; [25],≤ 4.70
same,pKd,HLA-B*40:01; [25],≤ 4.70
same,pKd,HLA-B*46:01,≤ 4.70
same,pKd,HLA-B*48:01 [21],5.25
same,pKd,HLA-B*51:01 [22],≤ 4.70
same,pKd,HLA-B*57:01; [25],≤ 4.70
same,pKd,HLA-B*58:01 [15]; [25],6.02
same,pKd,HLA-C*03:03,8.52
same,pKd,HLA-B*15:09; [25],≤ 4.70
WQLSGVVPL,pKd,HLA-B*48:01 [17]; source organism: Toxoplasma gondii RH,7.52
